Test results taken from US20110135636A1 (SYMPHOGEN A S, published 2011).

Columns and labels:
[1] = target: T1, recombinant human EGFR extracellular domain with 6xHis (human, UniProt P00533 25-645); assay: SPR competition, competitor Ab-11
T1 construct: In-house produced; also called 6xHis EGFR ECD; soluble human EGFR ECD; not shown: 6xHis tag
Experimental: (§1) SPR analysis was performed on a Biacore 3000 machine containing four flow cells. A CM5 Biacore chip was conjugated with 10,000 Resonance units (Ru) polyclonal anti-His antibody to flow cells 1-4 according to the manufacturer's instructions. […] Immediately after antigen injection the maximal binding of the Anti-EGFR mAb without competition was established in each flow cell during a reference run. Briefly 5 μl antibody at a concentration of 40 μg/ml was injected over all flow cells with captured EGFR followed by stripping of the antibody/antigen complex with a low pH acid wash (10 sec. contact time with 10 mM Glycine-HCl, pH2). After the determination of Anti-EGFR antibody maximal binding to each flow cell, a competition run was performed during the same Biacore cycle. Flow cells were first saturated with EGFR ECD antigen followed by injection of different reference antibodies or Anti-EGFR antibodies into separate flow cells using the same antigen saturating conditions as outlined above. This step was immediately followed by a second injection of Anti-EGFR antibody over the flow cell saturated with EGFR antigen and competition antibody to minimize the dissociation of either antigen or blocking antibody. Then the antibody/antigen complexes were stripped off with a low pH acid wash (10 sec. contact time with 10 mM Glycine-HCl, pH 2) and the whole cycle beginning with the reference run was repeated with a new Anti-EGFR antibody. The degree of inhibition of tested Anti-EGFR antibodies were determined by comparing the Ru max value of the individual Anti-EGFR antibody before and after competition by introduction of report points recorded two seconds before and after injection of each sample.

[2] = target: T2, wild type full length EGFR purified from A431 cells (human, UniProt P00533 25-1210); assay: competition ELISA, competitor ICR10; parameters: concentration or dose not given beside the values
T2 construct: mature; Bought; coated on ELISA wells; also called full length EGFR receptor antigen; Sigma E3641
Experimental: (§2) The ELISA was adapted from the descriptions published in Ditzel et al, 1995, The Journal of Immunology, Vol 154, Issue 2 893-906.
(§3) An epitope blocking ELISA was performed by diluting full length EGFR receptor antigen to 0.5 μg/ml in PBS; and coating 50 μl/ELISA well overnight at 4° C. […] Finally wells were washed four times with PBS-T and plates were developed by adding 50 μl/well TMB and read at 620 nm every 5-15-30 min. The degree of inhibition was calculated from the formula: % inhibition=(1−(OD competition/OD no competition (PBS)))×100.

[3] = target: T1, recombinant human EGFR extracellular …; assay: SPR competition, competitor Vectibix
Experimental: as §1

[4] = target: T1, recombinant human EGFR extracellular …; assay: SPR competition, competitor 1449
Experimental: as §1

[5] = target: T1, recombinant human EGFR extracellular …; assay: SPR competition, competitor 992 corr
Experimental: as §1

[6] = target: T2, wild type full length EGFR purified …; assay: competition ELISA, competitor Ab-11; parameters: concentration or dose not given beside the values
Experimental: as §2, §3

[7] = target: T3, Cynomolgus EGFR extracellular domain (Cynomolgus monkey (Macaca fascicularis), UniProt P55245 25-645 (rhesus entry)); assay: ELISA on cynomolgus EGFR ECD (Example 10)
T3 construct: Cloned without signal peptide; also called Cynomolgus rEGFR ECD; Cynomolgus EGFR ECD
Experimental: To verify that tested Anti-EGFR antibodies bound equally well to both Human and Cynomolgus EGFR ECD and accordingly warranting toxicology studies in Cynomolgus monkeys, serial four fold dilutions of antibodies beginning from 1 μg/ml were tested by ELISA for binding to recombinant Human and Cynomolgus EGFR ECD proteins. […] ELISA wells were coated with 50 μl/well of full length EGFR at a concentration of 1 μg/ml in PBS overnight at 4° C. The next morning wells were washed twice with PBS-T and blocked for one hour with 100 μl PBS-T-1% BSA at room temperature, followed by wash twice in PBS-T. Next 50 μl of serially diluted Anti-EGFR antibodies and control antibodies were added to wells and incubated for one hour at room temperature. After antibody incubation wells were washed five times with PBS-T, followed by incubation with 50 μl/well Streptavidin-HRP secondary reagent diluted 1:3000 in blocking buffer and incubation at room temperature for 30 min. Finally wells were washed five times with PBS-T and plates were developed by adding 50 μL/well TMB substrate and incubated at room temperature. After incubation the reaction was stopped by addition of 1 M H₂SO₄; 100 μl/well and plates were read at OD 450 nm.

[8] = target: T2, wild type full length EGFR purified …; assay: competition ELISA, competitor Ab-10; parameters: concentration or dose not given beside the values
Experimental: as §2, §3

[9] = target: T1, recombinant human EGFR extracellular …; assay: SPR competition, competitor Ab-5
Experimental: as §1

[10] = target: T1, recombinant human EGFR extracellular …; assay: SPR competition, competitor Vectibix; remark: listed apart in the source
Experimental: as §1

[11] = target: T1, recombinant human EGFR extracellular …; assay: SPR competition, competitor Erbitux
Experimental: as §1

[12] = target: T2, wild type full length EGFR purified …; assay: competition ELISA, competitor Ab-3; parameters: concentration or dose not given beside the values
Experimental: as §2, §3

[13] = target: T1, recombinant human EGFR extracellular …; assay: SPR competition, competitor Ab-1
Experimental: as §1

[14] = target: T1, recombinant human EGFR extracellular …; assay: SPR competition, competitor Erbitux; remark: listed apart in the source
Experimental: as §1

[15] = target: T2, wild type full length EGFR purified …; assay: competition ELISA, competitor Ab-1; parameters: concentration or dose not given beside the values
Experimental: as §2, §3

[16] = target: T2, wild type full length EGFR purified …; assay: competition ELISA, competitor Ab-5; parameters: concentration or dose not given beside the values
Experimental: as §2, §3

[17] = target: T2, wild type full length EGFR purified …; assay: competition ELISA, competitor Ab-2; parameters: concentration or dose not given beside the values
Experimental: as §2, §3

[18] = target: T1, recombinant human EGFR extracellular …; assay: SPR competition, competitor Ab-3
Experimental: as §1

[19] = target: T1, recombinant human EGFR extracellular …; assay: SPR competition, competitor ICR10
Experimental: as §1

[20] = target: T1, recombinant human EGFR extracellular …; assay: SPR competition, competitor Ab-10
Experimental: as §1

[21] = target: T1, recombinant human EGFR extracellular …; assay: SPR competition, competitor 1042
Experimental: as §1

B1: antibody 1042 (antibody, human IgG1, kappa, V domains shown)
VH: QVQLQQPGAELVKPGASVKLSCKASGYTFTSHWMHWVQQRPGQGLEWIGEIHPSNGRTNYNEKFKNKATLTVDKSPSTAYMQLSSLTSEDSAVYYCARYYGYDDAMDYWGQGTSVTVSS
VL: DIVMTQAAFSNPVTLGTSASISCRSSKSLLHSNGITYLYWYLQKPGQSPQLLIYQMSNLASGVPDRFSSSGSRTDFTLRISRVEAEDVGVYYCAQNLELPYTFGGGTKLEIKR
notes: Chimeric IgG1 kappa; RA- left out of the VH entry
[1]
  % inhibition: -8%
[2]
  % inhibition: -7%
[3]
  % inhibition: 110%
[4]
  % inhibition: 93%
[5]
  % inhibition: 25%
[6]
  % inhibition: 7%
[7]
  binding result: binds
[8]
  % inhibition: 15%
[9]
  % inhibition: 10%
[10]
  % inhibition: 103%
[11]
  % inhibition: 107%
[12]
  % inhibition: -29%
[13]
  % inhibition: 14%
[14]
  % inhibition: 107%
[15]
  % inhibition: 24%
[16]
  % inhibition: -7%
[17]
  % inhibition: 81%
[18]
  % inhibition: 0%
[19]
  % inhibition: -6%
[20]
  % inhibition: -4%
[21]
  % inhibition: 83%

B2: antibody 1277 (antibody, human IgG1, kappa, V domains shown)
VH: EVQLVESGGGLVKPGESLKLSCAASGFAFSYSDMSWVRQTPEKRLEWVAYMSSAGDVTFYSDTVKGRFTISRDNAKNTLYLQVSSLKSEDTAIYYCVRHRDVAMDYWGQGTSVTVSS
VL: DVVMTQTPLSLPVSLGDQASISCRSSQSLVHSNGNTYLHWYLQKPGQSPKLLIYKVSNRFSGVPDRFSGSGSGTDFTLKISRVEAEDLGVYFCSQSTHVPTFGGGTKLEIKR
notes: Chimeric IgG1 kappa; also called clone 1277
[7]
  binding result: binds
